T1: IFNAR1/IFNAR2 receptor (human (endogenous in HEK293)) (UniProt P17181)
T1 sequence 1: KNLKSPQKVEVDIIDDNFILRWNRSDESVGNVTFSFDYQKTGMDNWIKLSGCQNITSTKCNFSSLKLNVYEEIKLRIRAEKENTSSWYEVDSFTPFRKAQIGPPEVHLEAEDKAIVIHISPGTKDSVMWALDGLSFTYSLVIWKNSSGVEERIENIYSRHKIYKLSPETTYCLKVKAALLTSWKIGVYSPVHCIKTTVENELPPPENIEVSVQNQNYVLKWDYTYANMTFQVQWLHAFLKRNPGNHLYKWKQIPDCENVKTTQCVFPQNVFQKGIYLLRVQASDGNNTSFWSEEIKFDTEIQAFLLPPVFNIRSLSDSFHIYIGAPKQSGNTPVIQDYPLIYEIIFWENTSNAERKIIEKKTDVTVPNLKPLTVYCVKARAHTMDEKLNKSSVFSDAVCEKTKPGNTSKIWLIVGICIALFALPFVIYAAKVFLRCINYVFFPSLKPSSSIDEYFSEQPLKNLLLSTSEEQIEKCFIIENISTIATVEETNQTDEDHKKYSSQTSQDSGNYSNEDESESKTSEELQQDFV
T1 sequence 2: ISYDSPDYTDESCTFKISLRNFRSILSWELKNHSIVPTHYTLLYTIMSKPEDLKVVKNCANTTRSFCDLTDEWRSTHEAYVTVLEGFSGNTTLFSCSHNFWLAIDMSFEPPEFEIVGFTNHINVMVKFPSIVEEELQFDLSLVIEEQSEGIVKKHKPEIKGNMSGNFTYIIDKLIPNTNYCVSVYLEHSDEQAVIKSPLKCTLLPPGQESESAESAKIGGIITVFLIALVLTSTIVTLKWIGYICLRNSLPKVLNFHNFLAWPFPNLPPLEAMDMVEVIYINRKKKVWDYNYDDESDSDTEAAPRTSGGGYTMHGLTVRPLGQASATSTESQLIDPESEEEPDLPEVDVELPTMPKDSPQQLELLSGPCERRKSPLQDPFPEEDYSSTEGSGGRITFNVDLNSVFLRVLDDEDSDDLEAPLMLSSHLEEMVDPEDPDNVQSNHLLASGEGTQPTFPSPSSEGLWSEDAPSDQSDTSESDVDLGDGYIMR


Molecular target: T1, IFNAR1/IFNAR2 receptor (human (endogenous in HEK293))

Binder	EC50 of ISG54-driven secreted embryonic alkaline phosphatase in the HEK293 (HEK-BLUE IFN-αβ) reporter cell line, dose response, 24 h
IFNα-7 (ligand) CDLPQTHSLRNRRALILLAQMGRISPFSCLKDRHEFRFPEEEFDGHQFQKTQAISVLHEMIQQTFNLFSTEDSSAAWEQSLLEKFSTELYQQLNDLEACVIQEVGVEETPLMNEDFILAVRKYFQRITLYLMEKKYSPCAWEVVRAEIMRSFSFSTNLKKGLRRKD	3.3 nM
IFNα-10 (ligand) CDLPQTHSLGNRRALILLGQMGRISPFSCLKDRHDFRIPQEEFDGNQFQKAQAISVLHEMIQQTFNLFSTEDSSAAWEQSLLEKFSTELYQQLNDLEACVIQEVGVEETPLMNEDSILAVRKYFQRITLYLIERKYSPCAWEVVRAEIMRSLSFSTNLQKRLRRKD	0.3 nM
